# Test results as given in paper doi:10.1101/2020.01.21.913814.
# T1: His-tagged Arabidopsis thaliana full-length UVR8 (UV … LOCUS 8) (Arabidopsis thaliana), Q9FN03
# T1 chain: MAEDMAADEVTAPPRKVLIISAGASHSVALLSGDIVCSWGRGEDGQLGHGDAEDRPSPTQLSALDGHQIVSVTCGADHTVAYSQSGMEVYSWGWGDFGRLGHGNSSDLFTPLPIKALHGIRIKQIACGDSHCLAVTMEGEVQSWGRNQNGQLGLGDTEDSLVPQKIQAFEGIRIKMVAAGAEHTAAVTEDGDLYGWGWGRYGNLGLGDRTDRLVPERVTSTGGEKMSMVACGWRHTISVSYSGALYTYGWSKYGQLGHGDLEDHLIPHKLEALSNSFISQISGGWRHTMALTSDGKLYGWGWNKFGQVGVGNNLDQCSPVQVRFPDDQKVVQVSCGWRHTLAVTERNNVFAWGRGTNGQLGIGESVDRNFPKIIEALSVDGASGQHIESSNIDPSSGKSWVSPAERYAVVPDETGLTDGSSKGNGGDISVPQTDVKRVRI
# Target: T1, His-tagged Arabidopsis thaliana …
# Assay: SDS-PAGE without boiling
# Settings: remark: other sources report otherwise
binder,measurement,value
"His-tagged Arabidopsis thaliana full-length UVR8 (UV … LOCUS 8), Q9FN03 1-440 (natural protein) MAEDMAADEVTAPPRKVLIISAGASHSVALLSGDIVCSWGRGEDGQLGHGDAEDRPSPTQLSALDGHQIVSVTCGADHTVAYSQSGMEVYSWGWGDFGRLGHGNSSDLFTPLPIKALHGIRIKQIACGDSHCLAVTMEGEVQSWGRNQNGQLGLGDTEDSLVPQKIQAFEGIRIKMVAAGAEHTAAVTEDGDLYGWGWGRYGNLGLGDRTDRLVPERVTSTGGEKMSMVACGWRHTISVSYSGALYTYGWSKYGQLGHGDLEDHLIPHKLEALSNSFISQISGGWRHTMALTSDGKLYGWGWNKFGQVGVGNNLDQCSPVQVRFPDDQKVVQVSCGWRHTLAVTERNNVFAWGRGTNGQLGIGESVDRNFPKIIEALSVDGASGQHIESSNIDPSSGKSWVSPAERYAVVPDETGLTDGSSKGNGGDISVPQTDVKRVRI",stoichiometry N,2
